pEC50: −log10 of the molar value. Read-outs that look alike come from different tables or passages of the source. Where a SMILES comes first, the peptide text is derived from it. Bridges are numbered along the chain shown (N, C = ends). Where no end group is shown, it is not given here. Side-chain parts run from the residue outwards. [ ]: non-standard residue; d: D form. The star is where a group is joined. Ac‑Cys(PEG 40 kDa) = Cys whose alpha-amino group is acetylated and whose side chain carries a 40 kDa PEG; PEG 40 kDa = PEG (40 kDa) covalently attached to Cys; C18 acyl = 18 carbon fatty acyl group; Palmitoyl = CCCCCCCCCCCCCCCC(=O)*; Nle = CCCC[C@H](N)C(=O)O; Aib = CC(C)(N)C(=O)O
Assays:
Type in all cases: cell-based
GIP receptor = target: T1, GIP receptor (Homo sapiens, UniProt P48546); assay: cAMP synthesis functional assay (firefly luciferase reporter in HEK293 cells), GIP receptor; details: for pEC50: read-out: GIP Receptor EC50
T1 construct: expressed in transfected cells; host or cells: HEK293
T1 sequence (P48546 22-466): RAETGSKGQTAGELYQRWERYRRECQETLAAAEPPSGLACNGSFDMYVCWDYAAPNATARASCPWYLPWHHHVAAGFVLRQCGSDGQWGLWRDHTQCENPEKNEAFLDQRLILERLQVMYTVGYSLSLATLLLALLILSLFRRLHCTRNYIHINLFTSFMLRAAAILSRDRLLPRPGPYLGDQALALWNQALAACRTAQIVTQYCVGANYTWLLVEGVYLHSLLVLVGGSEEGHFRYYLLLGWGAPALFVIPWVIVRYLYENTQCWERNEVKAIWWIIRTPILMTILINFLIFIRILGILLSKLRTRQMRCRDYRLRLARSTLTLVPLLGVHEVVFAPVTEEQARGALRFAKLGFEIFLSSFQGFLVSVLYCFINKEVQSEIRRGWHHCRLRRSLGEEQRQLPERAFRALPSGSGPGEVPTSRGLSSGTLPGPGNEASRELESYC

GLP-1 receptor = target: T2, GLP-1 receptor (Homo sapiens, UniProt P43220); assay: cAMP synthesis functional assay (firefly luciferase reporter in HEK293 cells), GLP-1 receptor; details: for pEC50: read-out: GLP-1 Receptor EC50
T2 construct: expressed in transfected cells; host or cells: HEK293
T2 sequence (P43220 24-463, species assumed): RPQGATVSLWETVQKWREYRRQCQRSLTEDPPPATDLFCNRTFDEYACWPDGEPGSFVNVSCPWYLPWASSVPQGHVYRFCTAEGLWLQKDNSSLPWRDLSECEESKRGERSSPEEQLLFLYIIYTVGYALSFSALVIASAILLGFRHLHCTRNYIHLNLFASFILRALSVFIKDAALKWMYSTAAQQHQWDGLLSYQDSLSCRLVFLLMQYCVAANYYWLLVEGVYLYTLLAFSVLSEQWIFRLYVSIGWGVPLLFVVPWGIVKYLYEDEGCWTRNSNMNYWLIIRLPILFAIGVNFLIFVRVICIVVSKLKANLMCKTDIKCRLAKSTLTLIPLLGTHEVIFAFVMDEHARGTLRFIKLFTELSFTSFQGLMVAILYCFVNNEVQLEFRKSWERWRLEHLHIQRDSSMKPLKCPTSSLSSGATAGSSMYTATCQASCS

glucagon receptor = target: T3, glucagon receptor (Homo sapiens, UniProt P47871); assay: cAMP synthesis functional assay (firefly luciferase reporter in HEK293 cells), glucagon receptor; details: for pEC50: read-out: Glucagon Receptor EC50
T3 construct: expressed in transfected cells; host or cells: HEK293
T3 sequence (P47871 26-477): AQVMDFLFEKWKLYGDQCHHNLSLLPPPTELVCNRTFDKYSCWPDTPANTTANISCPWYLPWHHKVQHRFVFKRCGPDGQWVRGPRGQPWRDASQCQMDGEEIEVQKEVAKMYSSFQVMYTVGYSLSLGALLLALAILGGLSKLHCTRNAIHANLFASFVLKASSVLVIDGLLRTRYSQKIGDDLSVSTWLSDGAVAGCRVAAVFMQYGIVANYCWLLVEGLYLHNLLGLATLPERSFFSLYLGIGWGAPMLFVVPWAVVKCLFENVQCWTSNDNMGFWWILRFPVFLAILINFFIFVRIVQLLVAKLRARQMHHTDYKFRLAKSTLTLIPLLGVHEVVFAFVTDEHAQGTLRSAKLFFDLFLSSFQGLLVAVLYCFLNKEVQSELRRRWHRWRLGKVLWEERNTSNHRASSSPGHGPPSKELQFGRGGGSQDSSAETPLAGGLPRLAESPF

[1] = tested on: glucagon receptor, GLP-1 receptor or GIP receptor; assay: Agonist profile across receptors assigned from the cAMP reporter assay data; details: assigned from the in vitro EC50 data of Tables 1-4
[2] = Table 4, relative to the native hormone
[3] = Table 1, relative to the native hormone of the indicated receptor
[4] = cAMP luciferase reporter assay as in Example 16
[5] = relative to the standard (Std.) EC50 of the same run

Molecule	GIP Receptor relative activity (GIP receptor; [2]) [%]	GLP-1 Receptor relative activity (GLP-1 receptor; [2]) [%]	Glucagon Receptor relative activity (glucagon receptor; [2]) [%]	GIP Receptor relative activity (GIP receptor; [3]) [%]	GLP-1 Receptor relative activity (GLP-1 receptor; [3]) [%]	Glucagon Receptor relative activity (glucagon receptor; [3]) [%]	other results
CC[C@H](C)[C@H](NC(=O)[C@H](CO)NC(=O)[C@H](Cc1ccc(O)cc1)NC(=O)[C@H](CC(=O)O)NC(=O)[C@H](CO)NC(=O)[C@@H](NC(=O)[C@H](Cc1ccccc1)NC(=O)[C@@H](NC(=O)CNC(=O)[C@H](CCC(N)=O)NC(=O)C(C)(C)NC(=O)[C@@H](N)Cc1ccc(O)cc1)[C@@H](C)O)[C@@H](C)CC)C(=O)N[C@@H](Cc1ccc(O)cc1)C(=O)N[C@@H](CC(C)C)C(=O)N[C@@H](CC(=O)O)C(=O)N[C@@H](CCCCN)C(=O)N[C@@H](CCC(N)=O)C(=O)N[C@@H](C)C(=O)N[C@@H](C)C(=O)NC(C)(C)C(=O)N[C@@H](CCC(=O)O)C(=O)N[C@@H](Cc1ccccc1)C(=O)N[C@H](C(=O)N[C@@H](CC(N)=O)C(=O)N[C@@H](Cc1c[nH]c2ccccc12)C(=O)N[C@@H](CC(C)C)C(=O)N[C@@H](CC(C)C)C(=O)N[C@@H](C)C(=O)NCC(=O)NCC(=O)N1CCC[C@H]1C(=O)N[C@@H](CO)C(=O)N[C@@H](CO)C(=O)NCC(=O)N[C@@H](C)C(=O)N1CCC[C@H]1C(=O)N1CCC[C@H]1C(=O)N1CCC[C@H]1C(=O)N[C@@H](CO)C(=O)N[C@@H](CCCCN)C(N)=O)C(C)C [mt-357] (H-Y[Aib]QGTFISDYSIYLDKQAA[Aib]EFVNWLLAGGPSSGAPPPSK-NH2; N-terminus assumed)	206.37	0.86	260.92				
CCCCCCCCCCCCCCCC(=O)NCCCC[C@H](NC(=O)[C@H](CO)NC(=O)[C@@H]1CCCN1C(=O)[C@@H]1CCCN1C(=O)[C@@H]1CCCN1C(=O)[C@H](C)NC(=O)CNC(=O)[C@H](CO)NC(=O)[C@H](CO)NC(=O)[C@@H]1CCCN1C(=O)CNC(=O)CNC(=O)[C@H](C)NC(=O)[C@H](CC(C)C)NC(=O)[C@H](CC(C)C)NC(=O)[C@H](Cc1c[nH]c2ccccc12)NC(=O)[C@H](CC(N)=O)NC(=O)[C@@H](NC(=O)[C@H](Cc1ccccc1)NC(=O)[C@H](CCC(=O)O)NC(=O)C(C)(C)NC(=O)[C@H](C)NC(=O)[C@H](C)NC(=O)[C@H](CCC(N)=O)NC(=O)[C@H](CCCCN)NC(=O)[C@H](CC(=O)O)NC(=O)[C@H](CC(C)C)NC(=O)[C@H](Cc1ccc(O)cc1)NC(=O)[C@@H](NC(=O)[C@H](CO)NC(=O)[C@H](Cc1ccc(O)cc1)NC(=O)[C@H](CC(=O)O)NC(=O)[C@H](CO)NC(=O)[C@@H](NC(=O)[C@H](Cc1ccccc1)NC(=O)[C@@H](NC(=O)CNC(=O)[C@H](CCC(N)=O)NC(=O)C(C)(C)NC(=O)[C@@H](N)Cc1ccc(O)cc1)[C@@H](C)O)[C@@H](C)CC)[C@@H](C)CC)C(C)C)C(N)=O [mt-358] (H-Y[Aib]QGTFISDYSIYLDKQAA[Aib]EFVNWLLAGGPSSGAPPPSK(Palmitoyl)-NH2; N-terminus assumed)	305.62	13.04	1266.00				EC50 (GIP receptor; GIP Receptor EC50, nM, Table 4): 0.0045 nM
Y[Aib]EGTFISDYSIAMDKIHQQDFVNWLLAQKGKKNWLKHNITQ-NH2 [mt-100]				306.25	0.01	0.01	
Y[Aib]EGTFTSDYSIYLDEQAAKEFVNWLLAGKGKKNWLKHNITQC-NH2 (lactam 16-20) [mt-206]				13.04	32.63	0.01	
mt-172: glucagon analog peptide, C-terminal amide (Y[Aib]QGTFTSDYSIYLDEQAAKEFVC(PEG 40 kDa)WLLAG-NH2; lactam 16-20)							receptor activity profile (glucagon / GLP-1 / GIP agonism) [1]: exemplary GLP-1/GIP/glucagon triagonist peptides
mt-175: glucagon analog peptide, C-terminal amide (Y[Aib]QGTFTSDYSIYLDEQAAKEFVC(PEG 40 kDa)WLLAGGPSSGAPPPS-NH2; lactam 16-20)							receptor activity profile (glucagon / GLP-1 / GIP agonism) [1]: exemplary GLP-1/GIP/glucagon triagonist peptides
mt-202: glucagon analog peptide, C-terminal amide (Y[Aib]QGTFVSDYSIYLDEQAAKEFVNWLLAGGPSSGAPPPSC(PEG 40 kDa)-NH2; lactam 16-20)				1.32	0.18	2.84	pEC50 (GIP receptor; Table 1): 8.66; pEC50 (GLP-1 receptor; Table 1): 7.80; pEC50 (glucagon receptor; Table 1): 8.63
mt-203: glucagon analog peptide, C-terminal amide (Y[Aib]QGTFTSDYSIYLDEQAAKEFVNWL[Nle]AGGPSSGAPPPSC(PEG 40 kDa)-NH2; lactam 16-20)				0.24	20.71	1.38	pEC50 (GIP receptor; Table 1): 7.91; pEC50 (GLP-1 receptor; Table 1): 9.85; pEC50 (glucagon receptor; Table 1): 8.32
mt-205: glucagon analog peptide, C-terminal amide (Y[Aib]EGTFTSDYSIYLDEQAAKEFVNWLLAGRPSSGAPPPSC(PEG 40 kDa)-NH2; lactam 16-20)				1.74	14.22	0.01	pEC50 (GIP receptor; Table 1): 8.78; pEC50 (GLP-1 receptor; Table 1): 9.69; pEC50 (glucagon receptor; Table 1): 6.17
mt-225: pegylated monomer with lactam bridge between Glu16 and Lys20, PEG attached via dipeptide spacer (Y[Aib]QGTFTSDYSIYLDEQAAKEFVNWLLAGGPSSGAPPPSK([Ala-Ac‑Cys(PEG 40 kDa)])-NH2; lactam 16-20)	0.90	29.59	1.99				
mt-227: pegylated monomer with lactam bridge between Glu16 and Lys20, PEG attached via dipeptide spacer (Y[Aib]QGTFTSDYSIYLDEQAAKEFVNWLLAGGPSSGAPPPSK([Arg-Ac‑Cys(PEG 40 kDa)])-NH2; lactam 16-20)	1.29	36.25	1.27				
mt-248: sequence of mt-170 with an AIB at position 16 in lieu of the lactam (Y[Aib]QGTFTSDYSIYLD[Aib]QAAKEFVNWLLAGGPSSGAPPPSC(PEG 40 kDa)-NH2)							receptor activity profile (glucagon / GLP-1 / GIP agonism) [1]: exhibited activities of glucagon/GLP-1/GIP triagonists
mt-281 (Y[Aib]QGTFTSDYSIYLDKQAA[Aib]EFVC(PEG 40 kDa)WLLAG-NH2)							pEC50 (GIP receptor; [4]): 9.40; GIP Receptor relative activity (GIP receptor; [5]): 6.68%; pEC50 (GLP-1 receptor; [4]): 9.66; GLP-1 Receptor relative activity (GLP-1 receptor; [5]): 5.13%; Glucagon Receptor relative activity (glucagon receptor; [5]): 16.65%
mt-310: acylated version of mt-274: C-terminal Lys with C18 fatty acyl group, 40 kDa PEG on Cys at position 24 (Y[Aib]EGTFTSDYSIYLDKQAA[Aib]EFVC(PEG 40 kDa)WLLAGGPSSGAPPPSK(C18 acyl)-NH2)							receptor activity profile (glucagon / GLP-1 / GIP agonism) [1]: exhibited activity at the GIP, GLP-1, and glucagon receptors
mt-376: acylated PEG-linked dimer, acylation at position 40 of each monomer (YXEGTFTSDYSIYLDKQAAXEFVNWLLAGGPSSGAPPPSKC; PEG-linked dimer, acylated at position 40; Mt-376; Homodimer; Xaa is Aib; 14 Carbon fatty acyl group covelently bound to Lysine; C-terminal amidation; Cys residue covalently attached to 20 kDa PEG which is in turn covalently attached to a Cys residue of a second peptide having the same structure)	62.63	126.82	0.57				pEC50 (glucagon receptor; Table 4): 7.87
mt-377: acylated PEG-linked dimer, acylation at position 40 of each monomer (YXEGTFTSDYSIYLDKQAAXEFVNWLLAGGPSSGAPPPSKC; PEG-linked dimer, acylated at position 40; Mt-377; homodimer; Xaa is Aib; 14 Carbon fatty acyl group covalently bound to Lysine; PEG (5kDa) covalently bound to Cysteine; C-terminal amidation; Cys residue covalently attached to 5 kDa PEG which is in turn covalently attached to a Cys residue of a second peptide having the same structure)	138.11	177.88	1.98				pEC50 (glucagon receptor; Table 4): 8.41
